From article doi:10.1101/2024.09.19.613822

Molecular target: His-tagged proaerolysin (Aeromonas hydrophila) (UniProt P09167)
Assay: SEC

stoichiometry N: 2
Substance: His-tagged proaerolysin (from UniProt P09167 24-445) (natural protein)
